Assay results published in the supplement of paper PMC10567573.
± gives the standard deviation.

Assay: protein stability index of a GFP-peptide fusion (GPS, HEK-293T) (PSI 1-6); higher = more stable
[1] = treatment: DMSO, c terminus: a fixed tail appended
[2] = treatment: MLN4924 1 uM, 8 h, c terminus: a fixed tail appended
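Further: 24-mer peptide tiles fused after GFP, lentivirally expressed, FACS-sorted into six equal bins by GFP/DsRed ratio, decoded by Illumina sequencing, PSI is the read-weighted mean bin number.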

| Sequence | protein stability index [1] | protein stability index [2] | protein stability index (treatment: DMSO, c terminus: native) | protein stability index (treatment: MLN4924 1 uM, 8 h, c terminus: native) |
| --- | --- | --- | --- | --- |
| SLIGKGSFGQVVKAYDHQTQELVA [DYRK1B] | 3.56 ± 0.26 | 3.59 ± 0.43 |  |  |
| SLMYRSPPGAEEPQAPPASRDEAA [RETREG3] | 5.44 ± 0.22 | 5.38 ± 0.26 |  |  |
| SNSRQLKWLSCGFMLEIVTPTSLS [FBXO33] | 3.39 ± 0.73 | 2.83 ± 0.67 |  |  |
| SPALSQGHVTGSKTTKDATGPDT [PSD2] |  |  | 5.33 ± 0.28 | 5.43 ± 0.23 |
| SPASHVDVDLTIHGRHIDCPATWG [FOXJ1] | 3.14 ± 0.2 | 3.28 ± 0.19 |  |  |
| SPMLIVFHGKYSTINPLWHIRHLG [GLT8D2] | 2.82 ± 0.44 | 2.47 ± 0.71 |  |  |
| SPMPYVKWMLGAEDLTPEDDMPIG [PTPRD] | 4.3 ± 0.26 | 4.17 ± 0.48 |  |  |
| SPPTRPVPGHRSERAIRTQPKQLI [SPRY1] | 4.04 ± 0.37 | 4.05 ± 0.18 |  |  |
| SPSKTDGKELAGTMDGEGTLFQTE [PBXIP1] | 5.31 ± 0.24 | 5.44 ± 0.3 |  |  |
| SPSPMSHGHYSMHCLHSAGHSQPD [DLX1] | 3.82 ± 0.18 | 3.91 ± 0.21 |  |  |
| SRDRRRSSDRSRDSSHERTESQLT [BTBD10] | 5.45 ± 0.32 | 5.5 ± 0.22 |  |  |
| SRLGQGIGPIHLNEIQCTGNEKSI [LOXL2] | 4.42 ± 0.32 | 4.09 ± 0.18 |  |  |
| SRSNGSSPEARDARSPSGPSGSLE [TRIM29] | 5.16 ± 0.17 | 5.29 ± 0.3 |  |  |
| SSDHLFLFGGFTTDKQPLSDAWTY [KLHDC2] | 2.25 ± 0.61 | 2.23 ± 0.063 |  |  |
| SSLSSESSESSDAGLCMDSPSPMD [CDC25B] | 5.462 ± 0.013 | 5.37 ± 0.23 |  |  |
| SSSASSSFSEEGAVGYSSDSETLD [NFE2L1] | 5.65 ± 0.13 | 5.655 ± 0.043 |  |  |
| STEVQAHPYSTTFQESASTPETRA [TEKT4] | 5.23 ± 0.17 | 5.16 ± 0.1 |  |  |
| STHHGCEHICVNNGNSYICKCSEG [MATN2] | 5.16 ± 0.27 | 4.94 ± 0.23 |  |  |
| STLGTLQPPPAPPKKIMPEAHSHY [PPFIA4] | 4.02 ± 0.18 | 4.24 ± 0.1 |  |  |
| STLKEVKPTVFIGVPQIWEKIHEM [ACSBG2] | 2.1 ± 0.24 | 2.27 ± 0.31 |  |  |
| STNDKTVKLWKVSERDKRPEGYNL [PPP2R2B] | 3.93 ± 0.12 | 4.19 ± 0.14 |  |  |
| STSLLTSAGNRTHKARTRPKARKQ [ADAMTSL2] | 4.89 ± 0.35 | 4.92 ± 0.25 |  |  |

| Sequence | protein stability index [1] | protein stability index [2] | protein stability index (treatment: DMSO, c terminus: native) | protein stability index (treatment: MLN4924 1 uM, 8 h, c terminus: native) |
| --- | --- | --- | --- | --- |
| SVGDPCGGAICGGPDHRLRLWRLF [SLC25A25] | 2.35 ± 0.59 | 2.62 ± 0.21 |  |  |
| SVPFSFDPNTAAGWLSVSDDLTSV [TRIM35] | 3.42 ± 0.25 | 3.52 ± 0.23 |  |  |
| SVVTEDGPEPKDKGSLPQPPITEV [ZNF232] | 5.5 ± 0.2 | 5.48 ± 0.18 |  |  |
| SVVTTARMQVLKRQVQSLMVHQRK [SMARCE1] | 2.79 ± 0.14 | 2.94 ± 0.27 |  |  |
| SWARPRPDEERPLRRPRPVQRTQS [RASAL3] | 4.46 ± 0.36 | 4.57 ± 0.26 |  |  |
| SYSTSEQAELSYKKVSEGPPLRLW [DLC1] | 2.73 ± 0.36 | 3.26 ± 0.18 |  |  |
| TADRIIRVYDGREILTCGRDGEPE [RBBP5] | 4.55 ± 0.12 | 4.49 ± 0.31 |  |  |
| TAVAQAPPAVASSSLFDLSVLKLH [SERTAD1] | 3.17 ± 0.061 | 3.24 ± 0.2 |  |  |
| TCTWKLPTLAKFSPYLGQMINLRR [PRAME] | 2.28 ± 0.27 | 1.89 ± 0.3 |  |  |
| TDNQVRLRKRKEIREDRDRARLDS [DLC1] | 5.18 ± 0.39 | 5.07 ± 0.3 |  |  |
| TDQLEFTVEPRLLVADLLYWKDTR [RTN2] | 2.43 ± 0.23 | 2.54 ± 0.33 |  |  |
| TEEVKFYQLGEEALLKFREDEGFV [KCNA4] | 4.16 ± 0.3 | 4.3 ± 0.24 |  |  |
| TERSPGPRLQELLGPSPQRDPQAV [ZNF263] | 4.79 ± 0.2 | 4.91 ± 0.35 |  |  |
| TESSNTTIEDEDVKARKQEIIKVT [CAMK2D] | 5.21 ± 0.29 | 5.07 ± 0.25 |  |  |
| TFDTGCLTLSQYILLDPILMFFIM [POMT2] | 2.35 ± 0.52 | 2.33 ± 0.36 |  |  |
| TFFCPNDTYNDMATLFFNPQESAI [CLCN6] | 2.23 ± 0.32 | 2.26 ± 0.22 |  |  |
| TGFPQYAQLYEDFLFPIDISLVKR [DLC1] | 2.37 ± 0.24 | 2.35 ± 0.54 |  |  |
| TGIEYIVAQGPTNQGLNVMVWNQN [ADAMTSL2] | 2.175 ± 0.019 | 2.1 ± 0.24 |  |  |
| TGIVNHTHSRMGSIMSTGIVQGSS [CARM1] | 3.12 ± 0.2 | 3.5 ± 0.63 |  |  |
| TGNVCIEEIDVDGKFIRLKNTSEQ [LMNB1] | 4.76 ± 0.29 | 4.76 ± 0.15 |  |  |
| TGTSKRYQLCRVQECPPDGRSFRE [ADAMTSL2] | 2.58 ± 0.71 | 3.09 ± 0.62 |  |  |
| THIMKGEDDALSDKHGCPAYVSPE [TRIB1] | 5.12 ± 0.14 | 4.91 ± 0.22 |  |  |

| Sequence | protein stability index [1] | protein stability index [2] | protein stability index (treatment: DMSO, c terminus: native) | protein stability index (treatment: MLN4924 1 uM, 8 h, c terminus: native) |
| --- | --- | --- | --- | --- |
| TIAQSLEHSWIKAIRRRNVRGEDS [DAPK3] | 3.64 ± 0.41 | 3.4 ± 0.15 |  |  |
| TIDMGPQLKVVERTRTATMLCAAS [PTPRD] | 3.18 ± 0.23 | 3.49 ± 0.21 |  |  |
| TIVTDVFQGSMRIFTKKLPHPDLP [USP39] | 2.31 ± 0.099 | 2.38 ± 0.29 |  |  |
| TKKKKKTIVTDVFQGSMRIFTKKL [USP39] | 2.49 ± 0.26 | 2.83 ± 0.11 |  |  |
| TKKRKTFDSSRQRAEGTDIPTVKP [ZC2HC1A] | 4.86 ± 0.22 | 4.79 ± 0.2 |  |  |
| TLEALGYKGPLLEEQALTKAAEGG [FAM98B] | 4.61 ± 0.23 | 4.66 ± 0.083 |  |  |
| TLKEAYVQKLVKVCTDTDRWSLIS [TENT5C] | 2.58 ± 0.4 | 2.4 ± 0.41 |  |  |
| TLMTMAIRIIDRALKEDFGFKHRL [PRIM1] | 2.99 ± 0.62 | 2.9 ± 0.54 |  |  |
| TLSAELVPWLNLKKQDENEGIKVE [CEP70] | 4.33 ± 0.057 | 4.22 ± 0.098 |  |  |
| TMEYSMVGRTVLDMLIREVVEKRL [RSPH3] | 2.68 ± 0.54 | 2.64 ± 0.3 |  |  |
| TNCQKVLNMWCCCFFKRRKRKTIQ [CSNK1G3] | 4.01 ± 0.26 | 3.77 ± 0.21 |  |  |
| TPLPETGYWRVRLWNGDKYAATTT [TRIM39] | 2.47 ± 0.34 | 2.37 ± 0.2 |  |  |
| TQEFLSACKSLQTRQNGIQTNKPA [STX5] | 4.18 ± 0.21 | 4.14 ± 0.23 |  |  |
| TQEGAKDLEVDMNKTEVTPRLWTT [ACSBG2] | 3.55 ± 0.62 | 4.03 ± 0.68 |  |  |
| TQNHAASALPTGSPKRGTAPGDLS [FBF1] | 5.08 ± 0.18 | 5.13 ± 0.21 |  |  |
| TQTWCTQSWNNQAWNSPFYNCGEE [NANOGP8] | 3.07 ± 0.25 | 3.2 ± 0.12 |  |  |
| TREWTQLKPNNLSCDLPEERYRHE [KLHDC10] | 4.61 ± 0.3 | 4.71 ± 0.13 |  |  |
| TRRLRLAHVGMELQLKQELAMLNA [SCARA5] | 2.65 ± 0.23 | 2.55 ± 0.22 |  |  |
| TRWYRAPELLVGDTQYGSSVDIWA [CDKL4] | 1.97 ± 0.59 | 2.26 ± 0.39 |  |  |
| TSDVYSSDAAFGGILERYWLSSRA [MYORG] | 2.62 ± 0.11 | 2.47 ± 0.092 |  |  |
| TSSVSCALDEAAAALTRMRAESTA [ANKRD17] | 3.06 ± 0.42 | 3.05 ± 0.32 |  |  |
| TTENENTKFEVRLLRDPADASEAH [CHGB] | 5.18 ± 0.21 | 5.24 ± 0.14 |  |  |

| Sequence | protein stability index [1] | protein stability index [2] | protein stability index (treatment: DMSO, c terminus: native) | protein stability index (treatment: MLN4924 1 uM, 8 h, c terminus: native) |
| --- | --- | --- | --- | --- |
| TWAPKNKGGEERKAEGGEEDSLGC [IRX6] | 5.5 ± 0.16 | 5.42 ± 0.18 |  |  |
| TWLPSRAEWLLAVRSIQPEEKERI [AASDHPPT] | 3.3 ± 0.31 | 3.29 ± 0.2 |  |  |
| TWMFFFMMCVAERTYKQRFLFAKL [PHTF1] | 2.83 ± 0.22 | 2.92 ± 0.36 |  |  |
| TYEEAAAYIQCQFEDLNKRKDTKE [GNAI1] | 4.61 ± 0.15 | 4.67 ± 0.12 |  |  |
| VAHVESLQEKSQCALEEYVRSQYP [NR2F2] | 3.6 ± 0.28 | 3.96 ± 0.25 |  |  |
| VAQGPTNQGLNVMVWNQNGKSPSI [ADAMTSL2] | 3.11 ± 0.4 | 3.62 ± 0.23 |  |  |
| VAWCYYSVSLRKAERLRAELLDLK [MYORG] | 2.35 ± 0.42 | 2.15 ± 0.47 |  |  |
| VCTVQFLISKGANVNRTTANNDHT [ANKRD17] | 2.28 ± 0.24 | 2.46 ± 0.4 |  |  |
| VDCACLKENPECPVLKRSSESMEN [KMT2E] | 4.96 ± 0.37 | 4.98 ± 0.19 |  |  |
| VDFQCVKSKSITNLAAAAADIPQD [BTBD10] | 4.79 ± 0.28 | 4.8 ± 0.11 |  |  |
| VDFTFVENVVHGHILAAEQLSRDS [NSDHL] | 2.37 ± 0.36 | 2.26 ± 0.4 |  |  |
| VDGDQSKILISGLEPSTPYRFLLY [TNXB] | 2.41 ± 0.45 | 2.21 ± 0.48 |  |  |
| VDLELFPSPDMECADVPLLTPSSK [ETS1] | 4.07 ± 0.24 | 4.05 ± 0.2 |  |  |
| VDLVDESGYVSGYKHAGTYDQKVQ [TPPP] | 4.04 ± 0.32 | 4.01 ± 0.17 |  |  |
| VDPIGHLYIFATCLGLSYDGLLGD [MAGEA3] | 3.06 ± 0.37 | 3.21 ± 0.34 |  |  |
| VDSAEYSCLKAIVLFTSDACGLSD [NR2F2] | 2.23 ± 0.38 | 2.25 ± 0.31 |  |  |
| VDTLNVKDIAPEKQLLNSAVIAQQ [DLC1] | 4.53 ± 0.36 | 4.55 ± 0.24 |  |  |
| VEGKCLQSGFEMLKDVKSTLEKCE [TRIM39] | 4.31 ± 0.21 | 4.41 ± 0.19 |  |  |
| VGAAGSARQELLGDRPRWQRLLGE [ANKRD9] | 3.54 ± 0.27 | 3.31 ± 0.15 |  |  |
| VGLGTCSMFSRVGGIIAPFIPSLK [SLC22A15] | 2.1 ± 0.36 | 2.33 ± 0.45 |  |  |
| VGTAAVNMCLVATGGADAYYEMGI [IMPA1] | 2.71 ± 0.045 | 2.73 ± 1.1 |  |  |
| VISQLEQGTELWVAERGTTQGCHP [ZNF8] | 3.96 ± 0.29 | 3.99 ± 0.45 |  |  |
